From article PMC8679000, “Biochemical Characterizations of Human TMPK Mutations Identified in Patients with Severe Microcephaly: Single Amino Acid Substitutions Impair Dimerization and Abolish Their Catalytic Activity” (ACS Omega, 2021) come the findings set out here.

The data set concerns the molecule itself. The data set can be described thus: SEC; Superdex G200; 10 mM Tris/HCl pH 7.6, 100 mM NaCl, 5 mM MgCl2, 5 mM DTT; 200 ug protein injected, 0.4 mL/min; 0.4 mL fractions analysed by TMPK activity and Western blot; size markers BSA, ovalbumin, cytochrome C. A general note: In gel filtration, larger molecules generally elute earlier.

B1: wild-type human deoxythymidylate kinase (TMPK) (enzyme, UniProt P23919 1-212, looked up)
chain: MAARRGALIVLEGVDRAGKSTQSRKLVEALCAAGHRAELLRFPERSTEIGKLLSSYLQKKSDVEDHSVHLLFSANRWEQVPLIKEKLSQGVTLVVDRYAFSGVAFTGAKENFSLDWCKQPDVGLPKPDLVLFLQLQLADAAKRGAFGHERYENGAFQERALRCFHQLMKDTTLNWKMVDASKSIEAVHEDIRVLSEDAIRTATEKPLGELWK
notes: The pET-14b vector with N-terminal 6xHis tag is stated for the mutants only; the WT was 'run in parallel'; also called WT TMPK; WT; not shown: His6 (inferred from the mutants' construct)
On to B1, for which the “stoichiometry N” value was found to be 2.

One may read the stoichiometry N as the number of molecules, sites or subunits per partner or assembly.
